Laboratory results taken from PMC2715080 (The Journal of Experimental Medicine, 2009).
Where two headings read alike, the source gives them in different places.

How the values were obtained:
[1] = target: T1, B7-H6-Fc (extracellular domain of B7-H6, aa 1-267, fused to effector-negative mouse IgG2a Fc) (human, UniProt Q68D85 25-267); test: SPR
T1 sequence (looked up): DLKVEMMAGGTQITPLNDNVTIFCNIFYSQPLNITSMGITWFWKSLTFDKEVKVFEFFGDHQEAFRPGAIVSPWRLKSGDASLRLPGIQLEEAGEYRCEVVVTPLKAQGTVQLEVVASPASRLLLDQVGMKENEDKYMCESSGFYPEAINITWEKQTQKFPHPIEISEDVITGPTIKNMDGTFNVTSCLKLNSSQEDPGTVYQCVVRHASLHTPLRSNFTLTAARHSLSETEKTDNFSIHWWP

[2] = target: T1, B7-H6-Fc (extracellular domain of …); test: SPR; remark: listed apart in the source

B1: NKp30-hFc (soluble recombinant NKp30 fused to mutated human IgG1) (Fc fusion, UniProt O14931 19-135, looked up)
chain: LWVSQPPEIRTLEGSSAFLPCSFNASQGRLAIGSVTWFRDEVVPGKEVRNGTPEFRGRLAPLASSRFLHDHQAELHIRDVRGHDASIYVCRVEVLGLGVGTGNGTRLVVEKEHPQLG
binding result [1]: binds | binding result [2]: binds
